How the values were obtained:
Type in all cases: cell-based, Homo sapiens
[1] = system: PARP / caspase 8 / caspase 3 in HCT116 cells; assay: Western blot of HCT116 lysates (PARP, caspase 8 and caspase 3 cleavage, DR5 level)
Experimental: Media and cells for each sample were collected by cell scraping into cold PBS followed by a subsequent wash with 1 ml of cold PBS. The cell pellet was then resuspended in cold lysis buffer (30 mM HEPES pH 7.2, 150 mM NaCl, 1% Triton X100, 1x Roche protease inhibitor) and lysed via needle shearing on ice. Samples were centrifuged at 1000xg for 5 min, and the supernatants were mixed with sample buffer to a final concentration of 1% SDS, 62.5 mM Tris-HCl pH 6.8, 10% glycerol, 0.1% bromophenol blue, 50 mM DTT. Samples were boiled at 95°C and loaded on SDS-PAGE gels (GenScript). Samples were subsequently transferred onto nitrocellulose membranes, blocked with Odyssey buffer (Licor) for 1 hr at RT, and probed with primary antibodies diluted 1:1000 (unless otherwise specified) in Licor Odyssey buffer supplemented with 0.1% Tween 20% at 4°C overnight.
Bound primary antibodies were probed by HRP-conjugated secondary antibodies (Amersham, Piscataway, NJ, 1:10000) using enhanced chemiluminescence (SuperSignal; Thermo Scientific, Waltham, MA) detected by standard film or through the ChemiDoc XRS+ Imaging System (Bio-Rad).

[2] = system: DR5; assay: DR5 immunoprecipitation (blotted for DR5, MPZ-GFP, FADD); conditions: HCT116 transfected with MPZ-GFP
Experimental: IP for DR5 was performed as previously described in [Lu et al. (2014)], using anti-DR5 mAb 5C7-conjugated agarose beads gifted by David Lawrence of the Ashkenazi lab at Genentech Inc.

[3] = system: caspase 8 in HCT116 lysates; assay: Size-exclusion chromatography of cell lysates with caspase 8 activity; conditions: relative to GFP; 24 hr
Experimental: Size-exclusion fractionation of cell lysate was performed as previously described in [Lu et al. (2014)] with minor modifications.
In a 15 cm dish, 4 million HCT116 cells were seeded 18 hr prior to transfection (see Transient transfections for protein expression). 24 hr post-transfection, cells were harvested by collecting all media (to collect detached, dying cells) and scraping the dish in 3 ml of cold PBS. The cell suspension was centrifuged at 500xg to pellet the sample. Cells were washed with an additional 1 ml of cold PBS, pelleted, and flash frozen in liquid N2 prior to lysis.
Cells were resuspended in 600 μl of lysis buffer (30 mM HEPES pH 7.2, 150 mM NaCl, 1% Triton X-100) with 1x protease inhibitor (Roche) and lysed through a 25G needle with 10 passes. […]
For the caspase 8 activity assay, 10 μl of each fraction was incubated with 10 μl of the caspase glo 8 substrate (Promega #PRG8200) in a 384-well white walled plate (Corning 3574) for 45 min at RT before measuring luminescence on a Spectramax-M5 plate reader.
For Western blots, every three fractions were pooled for a total of 1.5 ml and subjected to TCA precipitation to concentrate the protein content. Samples were then analyzed by SDS-PAGE and immunoblotted for GFP and DR5.

B1: MPZ-GFP: myelin protein zero with a C-terminal monomeric EGFP, expressed from plasmid (protein)
chain: IVVYTDREVHGAVGSRVTLHCSFWSSEWVSDDISFTWRYQPEGGRDAISIFHYAKGQPYIDEVGTFKERIQWVGDPRWKDGSIVIHNLDYSDNGTFTCDVKNPPDIVGKTSQVTLYVFEKVPTRYGVVLGAVIGGVLGVVLLLLLLFYVVRYCWLRRQAALQRRLSAMEKGKLHKPGKDASKRGRQTPVLYAMLDHSRSTKAVSEKKAKGLGESRKDKK
modifications: left off: monomeric EGFP, C-terminal, kept
notes: myelin protein zero with a C-terminal monomeric EGFP, expressed from plasmid
Q: For B1, which “DR5 int (bg subtracted)” value ([1]; DR5 input levels, Rep 2) is on record?
A: 739.08

Q: What about the “normalized DR5 to GAPDH” value ([1]; DR5 input levels, Rep 2) of the same molecule?
A: 0.2156

Q: And the “DR5 int (bg subtracted)” value ([1]; DR5 input levels, Rep 3)?
A: 357.944

Q: What about the “normalized DR5 to GAPDH” value ([1]; DR5 input levels, Rep 3) of the same molecule?
A: 0.2423

Q: And the “DR5 levels normalized to GAPDH, average” value ([1]; DR5 input levels, average of rep 2 and rep 3, Stdev in row below)?
A: 0.229

Q: What about the “caspase 8 and caspase 3 cleavage, high expression” value ([1]; HCT116, 24 hr) of the same molecule?
A: cleavage of caspase 8and its downstream target caspase 3

Q: And the “caspase 8 and 3 cleavage/activity, low expression level” value ([1]; low levels of MPZ-GFP expression, proper plasma membrane localization)?
A: did not induce caspase 8 or 3 activity

Q: What about the DR5 pull-down [2] of the same molecule?
A: enriched for FADD and MPZ-GFP

Q: What about the “caspase 8 activity in high MW size exclusion fractions” value [3] of the same molecule?
A: increased caspase 8 activity in high-molecular w8 (MW) fractions
